{"source": "paper PMC7773637", "about": "“Short-Chain Dehydrogenase NcmD Is Responsible for the C-10 Oxidation of Nocamycin F in Nocamycin Biosynthesis” (Frontiers in Microbiology, 2020)", "tested_on": "CC1=CC(O)C2OC1(C(C)C(C)O)OC(C(C)/C=C(C)/C=C/C(O)=C1C(=O)CNC1=O)C2C", "assay": "HPLC product quantification, initial rates, Michaelis-Menten fit", "type": "biochemical, Saccharothrix syringae", "conditions": "2 mM NAD^+, pH 8.5, 45°C, 0.2 μM NcmD"}
{"substance": "NcmD (Saccharothrix syringae)", "values": [{"measurement": "Km", "value": "131 ± 13", "unit": "µM"}, {"measurement": "kcat", "value": "1.08 ± 0.083", "unit": "s⁻¹"}]}
